Laboratory results reported in article PMC2912373, “Low-Density Lipoprotein Receptor-Related Protein 1 (LRP1) Mediates Neuronal Aβ42 Uptake and Lysosomal Trafficking” (PLoS ONE, 2010).
“Also recorded” adds a separate entry of the source.

Columns and labels:
LRP1 = conditions: ref [23], [36]; cited from earlier work
N2a-mLRP4 cells = assay: MTS redox cell viability assay in Aβ42 treated cells; format: cell-based, mouse; conditions: 3 µM Aβ42, 72 h; only in mLRP4-expressing cells, not N2a-pcDNA3; p<0.05, n = 3
Method: We hypothesized that Aβ42 treatment might increase cell death in mLRP4-overexpressing N2a cells because we detected increased co-localization of Aβ42 with lysosomes in these cells. We treated N2a-pcDNA3 and N2a-mLRP4 cells with Aβ42 for 24, 48 and 72 h and assessed cell viability by reduction of the MTS redox dye. Aβ42 was prepared identically to the FAM-Aβ42 experiments.
Figure 5 Increased susceptibility to Aβ42-mediated cell death in LRP1 minireceptor-expressing cells. N2a-pcDNA3 and N2a-mLRP4 cells were incubated with increasing concentrations of Aβ42 for 24, 48 and 72 h and cell viability was assessed by the reduction of the MTS dye.
N2a-pcDNA3 and N2a-mLRP4 cells were plated at 16,250 cells/cm^2 in 48-well plates and grown overnight. Serial dilutions of freshly prepared synthetic Aβ42 were prepared by diluting the Aβ42 stock with internalization media. Culture media was then replaced with media containing 0, 1 or 3 µM Aβ42 and cells were incubated for an additional 24, 48 or 72 h. Cell viability was measured by using one-solution cell titer kit at each corresponding time point (Promega, Madison, WI). After 4 h labeling, the soluble reduced formazan product was quantified by directly reading the plate in a Bio-Tek plate reader. After background subtraction from media-only containing wells, results were represented as % of the corresponding control and untreated N2a cells.

N2a-mLRP4-Tless cells = assay: Kinetic analysis of 125I-RAP endocytosis; format: cell-based, mouse; conditions: 5 nM 125I-RAP, 4°C 60 min, then 37°C; internalized/total cell-associated ligand; triple determinations
Method: Figure 4 LRP1 endocytosis is required for Aβ42 uptake and accumulation in N2a cells. A, clathrin heavy chain (CHC) knockdown increases cell surface levels of mLRP4. N2a-mLRP4 cells were infected with CHC shRNA lentivirus or pLKO, control lentivirus. The levels of cell surface and total pools of mLRP4 were determined by flow cytometric analyses with anti-HA antibody in non-permeabilized and saponin-treated cells, respectively. The surface-to-total ratio were calculated and plotted as fold-change to control-infected cells. Right panel, decreased CHC levels and normal mLRP4 levels in transduced N2a-mLRP4 cells were verified by Western blot from sister cultures. […] The intracellular level of FAM-Aβ42 was determined by flow cytometric analyses of pronase-treated cells. […] The cell surface and total pools of the LRP1 minireceptor were determined by flow cytometric analyses with anti-HA antibody as in A in N2a-mLRP4 cells and in N2a cells stably transfected with a deletion variant lacking the cytoplasmic tail of mLRP4 (mLRP4-Tless). The surface-to-total ratios were then calculated and plotted as fold-change to N2a-mLRP4 cells. […] At each time point, the amounts of ligand that is either internalized or that remains at the cell surface were determined and the ratios of internalized to total cell-associated ligand were plotted against time. […]

## RAP: LRP1 chaperone of 39-kDa, model extracellular ligand for LRP1; labeled with Alexa-488 for uptake
LRP1
  affinity of RAP binding to LRP1: high affinity

## Aβ42: Unlabeled synthetic Aβ42 obtained from Bachem
N2a-mLRP4 cells
  cell viability (reduction of MTS dye): slight yet significant decrease; also recorded: Decreased viability

B1: ^125I-RAP: iodinated RAP protein used at 5 nM for kinetic analysis of endocytosis (protein, UniProt P30533 35-357, looked up)
Alpha-2-macroglobulin …: YSREKNQPKPSPKRESGEEFRMEKLNQLWEKAQRLHLPPVRLAELHADLKIQERDELAWKKLKLDGLDEDGEKEARLIRNLNVILAKYGLDGKKDARQVTSNSLSGTQEDGLDDPRLEKLWHKAKTSGKFSGEELDKLWREFLHHKEKVHEYNVLLETLSRTEEIHENVISPSDLSDIKGSVLHSRHTELKEKLRSINQGLDRLRRVSHQGYSTEAEFEEPRVIDLWDLAQSANLTDKELEAFREELKHFEAKIEKHNHYQKQLEIAHEKLRHAESVGDGERVSRSREKHALLEGRTKELGYTVKKHLQDLSGRISRARHNEL
modifications: 125I-labeled
notes: iodinated RAP protein used at 5 nM for kinetic analysis of endocytosis
N2a-mLRP4-Tless cells
  endocytosis rate for 125I-RAP in N2a-mLRP4-Tless vs N2a-mLRP4 cells: decreased
